T1: native soluble IL-6R in human plasma (human), P08887
T1 chain: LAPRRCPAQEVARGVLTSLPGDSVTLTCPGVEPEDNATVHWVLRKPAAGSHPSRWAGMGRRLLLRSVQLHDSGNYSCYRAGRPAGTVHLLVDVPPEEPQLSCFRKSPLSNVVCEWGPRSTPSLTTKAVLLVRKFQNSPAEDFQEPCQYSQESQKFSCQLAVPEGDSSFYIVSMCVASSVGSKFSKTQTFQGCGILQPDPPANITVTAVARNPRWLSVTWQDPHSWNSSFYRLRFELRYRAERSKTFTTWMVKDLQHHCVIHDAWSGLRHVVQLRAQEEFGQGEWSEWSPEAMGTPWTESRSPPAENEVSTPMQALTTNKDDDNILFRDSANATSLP


Tests used:
[1] = target: T2, soluble IL-6R in cynomolgous plasma (cynomolgus monkey, UniProt A0A2K5WN54); assay: ELISA 2, periplasmic extract; competitor IL-6; cyno plasma
[2] = target: T1, native soluble IL-6R in human plasma …; assay: ELISA 3, periplasmic extract; competitor BN-12; human plasma; settings: remark: other sources report otherwise
[3] = target: T1, native soluble IL-6R in human plasma …; assay: ELISA 1, periplasmic extract; competitor IL-6; human plasma; settings: remark: other sources report otherwise
[4] = target: T2, soluble IL-6R in cynomolgous plasma; assay: plasma potency ELISA, purified Nanobody; competitor IL-6; cyno plasma
Protocol: (§1) In this ELISA, plasma was used as a source of native soluble IL-6R. By this assay, we aimed to confirm the alphascreen results and to get a view on the cross-reactivity of the clones towards cynomolgous IL-6R. Human plasma (ELISA 1 and ELISA 3) or cynomolgous plasma (ELISA 2) were pre-incubated with a dilution of the periplasmic extract of the clones together with human IL-6 (50 ng/mL). Subsequently, plasma soluble IL-6R was captured on a B-N12 coated plate and bound IL-6 was detected using anti-IL-6 antibody BAF206 and streptavidin-HRP (ELISA 1 and ELISA 2). The ELISA signal dropped when the Nanobody clone could compete with IL-6 for binding to soluble IL-6R. ELISA 3 was a parallel ELISA in which the detection antibody was replaced by anti-IL-6R antibody BAF227 to exclude false positive competitors, which actually compete with B-N12 (e.g. family 2). Depicted in Table C-5 is the ratio of the OD450 value of the test sample versus the blank OD450 (mock sample). Clones were ordered based on ELISA 1 data.
(§2) A potency ELISA was done with the purified Nanobodies as described in Example 9. Here, different dilutions of each purified Nanobody were incubated with human (ELISA1) and cynomolgous plasma (ELISA2). IC50 values are depicted in Table C-9.

[5] = target: human IL-6R on CHO-K1 cells (clone HuIL6R 4D6) (human, UniProt P08887); assay: FMAT competition; competitor Reference IgG-A647; CHO cells with human IL-6R
Protocol: Eleven inhibitory Nanobodies were tested in competition with labelled Reference IgG for binding to CHO cells expressing hIL-6R or cynoIL-6R.

[6] = target: T3, native soluble IL-6R in human plasma (human, UniProt P08887); assay: ELISA 1, periplasmic extract; competitor IL-6; human plasma
IL-6R on TF-1 cells = IL-6R on TF-1 cells (Homo sapiens (Human), UniProt P08887); assay: cell-based or functional assay
[7] = target: cyno IL-6R on CHO-K1 cells (clone CyIL6R 405) (cynomolgus monkey; human-rhesus); assay: FMAT competition; competitor Reference IgG-A647; CHO cells with cyno IL-6R
[8] = target: T3, native soluble IL-6R in human plasma; assay: plasma potency ELISA, purified Nanobody; competitor IL-6; human plasma
Protocol: as §1, §2

[9] = target: T3, native soluble IL-6R in human plasma; assay: ELISA 3, periplasmic extract; competitor BN-12; human plasma

Binder	OD450 ratio sample/blank [1]	OD450 ratio sample/blank [2]	OD450 ratio sample/blank [3]	IC50 [4]	IC50 [5]	OD450 ratio sample/blank [6]	IC50, IL-6-dependent proliferation of TF-1 cells (3H-thymidine) (IL-6R on TF-1 cells)	IC50 [7]	IC50 [8]	OD450 ratio sample/blank [9]
IL6RPMP108E9 (VHH) VHH: EVQLVESGGGLVQAGGSLRLSCAFSRRSFGNFPMGWFRQRPGEEREYVAVISWNNNYIHYRDSVKGRFTASRDTSENRMYLQMNGLKPEDTAVYYCAARTKDNTLFTPAEEYDYWGQGTQVTVSS	0.961	0.989	0.731	–	–	–	–	–	–	–
IL6RPMP108C9 (VHH) VHH: EVQLVESGGGLVQAGGSLRLSCAASGRTYAMAWFRQAPGKEREFVAAISIVTDYADSVKGRFNISRDNRENTVYLQMNSLKPEDTAVYYCAANTYYSGAYFPRGHEWYEYWGQGTQVTVSS	0.907	1.01	0.911	–	–	–	–	–	–	–
IL6RPMP103F2 (VHH) VHH: EVQLVESGGGLVQAGGSLRLSCVASGHTSDTYIMAWFRQAPGKEREFVASILWDGSITYYADSVKDRFTISRDISRKTLYLQMNSLRPEDTATYTCARGIYFSRRYVDPGIYGTWGQGTQVTVSS	1.09	0.993	1.95	–	–	–	–	–	–	–
IL6RPMP103C3 (VHH) VHH: EVQLVESGGGLVQPGGSMRLSCAATGAIFSISTMGWYRQAPGAQREFVAGVGLDGTPNYADSVKGRFTISRDNTKNTVSLQMENLKPEDTGVYYCNIDEGMDYDGNFYDRWGQGTQVTVSS	1.1	1.01	2.02	–	–	–	–	–	–	–
IL6RPMP105E1 (VHH) VHH: EVQLVESGGGLVQAGGSLRLSCAASGSIFSIKAMGWYRQAPGKQRELVARITSGGSTYYADSVKGRFTISRDNAKNTVYLQMNSLKPEDTAVFYCNAIVTDSDYDLGNDYWGQGTQVTVSS	0.0402	–	–	0.62 nM	> 100 nM	0.21	6.2 nM	13 nM	0.58 nM	0.995
IL6RPMP120A5 (VHH) VHH: EVQLVESGGGLVQAGGSLSLSCATSGRTISDDTMAWFRQAPGKEREFVAIITFNGARTHYSDSVRDRFTISRDNAKNTVYLQMNSLKSEDTAVYYCAASTKYYSSTYNYIHPAFYDIWGQGTQVTVSS	0.031	–	–	0.55 nM	63 nM	0.138	5.59 nM	27 nM	0.47 nM	0.988
IL6RPMP103C4 (VHH) VHH: EVQLVESGGGLVEAGGSLRLSCAAAGRTLSSYSMAWFRQAPGKEREFVAIIRGNPSRTYHSDSVKGRFTASRDNAKNTVYLQMNRLEPEDTAVYYCAADPPPFASDYSAPQSYDYWGQGTQVTVSS	0.0819	–	–	2.7 nM	37 nM	0.959	15.6 nM	30 nM	1.73 nM	1
IL6RPMP103C7 (VHH) VHH: EVQLVESGGGLVQAGGSLSLSCATSGRTISDDTMAWFRQAPGKEREFVATITFSGARTHYSDSVRDRFTISRDNAKNTVYLQMDSLKSEDTAVYYCAASTKYYSSTYNYIHPAFYDIWGQGTQVTVSS	0.175	–	–	13.7 nM	> 100 nM	0.413	61.3 nM	75 nM	6.9 nM	0.948
IL6RPMP103H9 (VHH) VHH: EVQLVESGGGLVQPGGSLRLSCAASKSIFDINAMYWHRQAPGKQRESVASITSGGMRNYADSVKDRFTISKDNAKNTVYLQMNGLKPDDTAVYYCGLGRYEGGVWRDYWGQGTQVTVSS	0.263	–	–	14.8 nM	> 50 nM	1.59	1470 nM	–	37.9 nM	0.99
Reference Fab (Fab, V domains shown) VH: QVQLQESGPGLVRPSQTLSLTCTVSGYSITSDHAWSWVRQPPGRGLEWIGYISYSGITTYNPSLKSRVTMLRDTSKNQFSLRLSSVTAADTAVYYCARSLARTTAMDYWGQGSLVTVSS VL: DIQMTQSPSSLSASVGDRVTITCRASQDISSYLNWYQQKPGKAPKLLIYYTSRLHSGVPSRFSGSGSGTDFTFTISSLQPEDIATYYCQQGNTLPYTFGQGTKVEIKR	–	–	–	–	3.4 nM	–	–	–	–	–

— patent US10618964B2, “Nanobody against IL-6R” (Ablynx N.V., dated 2020)
